This note sets out measurements from patent US8071348B2, “Protein tyrosine phosphatase substrate-trapping double mutant and uses thereof” (Albert Einstein College of Medicine of Yeshiva University, priority 2002, dated 2011).

For experiment [1], the target named is epidermal growth factor receptor (EGFR) of COS1 cells, tyrosine-phosphorylated (monkey (COS1 cells)). In words: cell-based or functional assay.
The target is the same in experiment [2]. In words: co-immunoprecipitation from EGF-treated COS1 lysates with anti-HA agarose, anti-pTyr blot.

“HA-tagged full-length human PTP1B D181A/Q262A (from UniProt P18031 1-435) (enzyme)” yielded a protection of the phosphorylated EGF receptors in COS1 cells, against the D181A mutant (anti-pTyr immunoblot of lysates) in experiment [1] of 3 fold. The substance further came in with a fold greater quantity of tyrosine-phosphorylated EGF receptor co-precipitated than with the D181A mutant in experiment [2] above 3 fold.
